Test results as given in patent US10280205B2, “Method for treating cancer with an activated T lymphocyte that selectively recognizes a cancer cell consisting of specific peptide” (immatics biotechnologies GmbH, priority 2015, dated 2019).

Target: HLA-A*02:01 (Homo sapiens, UniProt P04439, D140Y/D185E/D98H/E176V/E277Q/G131W/G231S/I119V/I121R/I166T/I218V/L300P/L318F/N151K/N90K/P208A/P217A/Q86G/Q94H/R138H/R169H/T345S)
Test: MHC binding assay: UV-ligand exchange with beta2m ELISA (exchange yield)
Conditions: binding to HLA-A*02:01, β2m ELISA
Text: Candidate peptides for T cell based therapies according to the present invention were further tested for their MHC binding capacity (affinity). The individual peptide-MHC complexes were produced by UV-ligand exchange, where a UV-sensitive peptide is cleaved upon UV-irradiation, and exchanged with the peptide of interest as analyzed. Only peptide candidates that can effectively bind and stabilize the peptide-receptive MHC molecules prevent dissociation of the MHC complexes. To determine the yield of the exchange reaction, an ELISA was performed based on the detection of the light chain (β2m) of stabilized MHC complexes. The assay was performed as generally described in Rodenko et al. (Rodenko et al., 2006).
96 well MAXISorp plates (NUNC) were coated over night with 2 ug/ml streptavidin in PBS at room temperature, washed 4× and blocked for 1 h at 37° C. in 2% BSA containing blocking buffer. […] Peptide-MHC monomers of the UV-exchange reaction were diluted 100 fold in blocking buffer. Samples were incubated for 1h at 37° C., washed four times, incubated with 2 ug/ml HRP conjugated anti-β2m for 1h at 37° C., washed again and detected with TMB solution that is stopped with […]. Absorption was measured at 450 nm. Candidate peptides that show a high exchange yield (preferably higher than 50%, most preferred higher than 75%) are generally preferred for a generation and production of antibodies or fragments thereof, and/or T cell receptors or fragments thereof, as they show sufficient avidity to the MHC molecules and prevent dissociation of the MHC complexes.

Substance | Peptide exchange (MHC class I binding score, peptide exchange yield)
13 (YLMDESLNL; listed as Homo sapiens) [compound 13] | “+++” (≥50 = +++)
257 (SIFSAFLSV; listed as Homo sapiens) [compound 257] | “+++” (≥50 = +++)
139 (SVMEVNSGIYRV; listed as Homo sapiens) [compound 139] | “+++” (≥50 = +++)
235 (YLNDLHEVLL; listed as Homo sapiens) [compound 235] | “++++” (≥75% = ++++)
250 (ALSEEGLLVYL; listed as Homo sapiens) [compound 250] | “+++” (≥50 = +++)
232 (ALLEAQDVELYL; listed as Homo sapiens) [compound 232] | “++” (≥20% = ++)
83 (ILAPTVMMI; listed as Homo sapiens) [compound 83] | “+++” (≥50 = +++)
108 (ALFPGVALLLA; listed as Homo sapiens) [compound 108] | “++++” (≥75% = ++++)
31 (YLAPELFVNV; listed as Homo sapiens) [compound 31] | “++” (≥20% = ++)
29 (KMLGIPISNILMV; listed as Homo sapiens) [compound 29] | “+++” (≥50 = +++)
19 (FMVDNEAIYDI; listed as Homo sapiens) [compound 19] | “++++” (≥75% = ++++)
81 (FLFSQLQYL; listed as Homo sapiens) [compound 81] | “++” (≥20% = ++)
243 (LLLNELPSV; listed as Homo sapiens) [compound 243] | “+++” (≥50 = +++)
1 (SLMEPPAVLLL; listed as Homo sapiens) [compound 1] | “+++” (≥50 = +++)
145 (FLATSGTLAGI; listed as Homo sapiens) [compound 145] | “++” (≥20% = ++)
94 (YLIDIKTIAI; listed as Homo sapiens) [compound 94] | “++” (≥20% = ++)

Substance | Peptide exchange (MHC class I binding score, peptide exchange yield)
178 (ALTEIAFVV; listed as Homo sapiens) [compound 178] | “++++” (≥75% = ++++)
192 (KMLDGASFTL; listed as Homo sapiens) [compound 192] | “+++” (≥50 = +++)
164 (ALLPQPKNLTV; listed as Homo sapiens) [compound 164] | “+++” (≥50 = +++)
236 (GLLEAKVSL; listed as Homo sapiens) [compound 236] | “+++” (≥50 = +++)
23 (VLLDDIFAQL; listed as Homo sapiens) [compound 23] | “+++” (≥50 = +++)
162 (YQQAQVPSV; listed as Homo sapiens) [compound 162] | “+++” (≥50 = +++)
24 (SLSDGLEEV; listed as Homo sapiens) [compound 24] | “++” (≥20% = ++)
20 (RMIEYFIDV; listed as Homo sapiens) [compound 20] | “+++” (≥50 = +++)
121 (GVVDPRAISVL; listed as Homo sapiens) [compound 121] | “++” (≥20% = ++)
216 (NLWEDPYYL; listed as Homo sapiens) [compound 216] | “+++” (≥50 = +++)
101 (ILVGGGALATV; listed as Homo sapiens) [compound 101] | “+++” (≥50 = +++)
201 (RLVDYLEGI; listed as Homo sapiens) [compound 201] | “+++” (≥50 = +++)
240 (ILLEQAFYL; listed as Homo sapiens) [compound 240] | “+++” (≥50 = +++)
173 (LLDSASAGLYL; listed as Homo sapiens) [compound 173] | “+++” (≥50 = +++)
196 (YLYSVEIKL; listed as Homo sapiens) [compound 196] | “++++” (≥75% = ++++)

The remaining lines, values ahead:

Peptide exchange (MHC class I binding score, peptide exchange yield) | Substance
“+++” (≥50 = +++) | 604 (SILDRDDIFV; listed as Homo sapiens) [compound 604]
“+++” (≥50 = +++) | 462 (KLAKQPETV; listed as Homo sapiens) [compound 462]
“+++” (≥50 = +++) | 557 (KLYDDMIRL; listed as Homo sapiens) [compound 557]
“+++” (≥50 = +++) | 586 (KLKPGDLVGV; listed as Homo sapiens) [compound 586]
“++” (≥20% = ++) | 376 (AMFESSQNVLL; listed as Homo sapiens) [compound 376]
“++++” (≥75% = ++++) | 348 (ILLDVKTRL; listed as Homo sapiens) [compound 348]
“+++” (≥50 = +++) | 299 (YLLETSGNL; listed as Homo sapiens) [compound 299]
“+++” (≥50 = +++) | 281 (ILRESTEEL; listed as Homo sapiens) [compound 281]
“+++” (≥50 = +++) | 498 (KLWTGGLDNTV; listed as Homo sapiens) [compound 498]
“++++” (≥75% = ++++) | 438 (KLLPLAGLYL; listed as Homo sapiens) [compound 438]
“+++” (≥50 = +++) | 430 (HLYSSIEHLTT; listed as Homo sapiens) [compound 430]
“+++” (≥50 = +++) | 479 (SLFGNSGILENV; listed as Homo sapiens) [compound 479]
“+++” (≥50 = +++) | 433 (AMLNEPWAV; listed as Homo sapiens) [compound 433]
“+++” (≥50 = +++) | 530 (VMYADIGGMDI; listed as Homo sapiens) [compound 530]
“+++” (≥50 = +++) | 554 (LLMPSSEDLLL; listed as Homo sapiens) [compound 554]
“+++” (≥50 = +++) | 441 (ALLENPKMEL; listed as Homo sapiens) [compound 441]
“+++” (≥50 = +++) | 263 (LLVSNLDFGV; listed as Homo sapiens) [compound 263]
“+++” (≥50 = +++) | 426 (RLADKSVLV; listed as Homo sapiens) [compound 426]
“+++” (≥50 = +++) | 623 (YLVEDIQHI; listed as Homo sapiens) [compound 623]
“+++” (≥50 = +++) | 607 (RLYSGISGLEL; listed as Homo sapiens) [compound 607]
“+++” (≥50 = +++) | 369 (GLFPEHLIDV; listed as Homo sapiens) [compound 369]
“+++” (≥50 = +++) | 316 (ILLERLWYV; listed as Homo sapiens) [compound 316]
“+++” (≥50 = +++) | 477 (ALLPASGQIAL; listed as Homo sapiens) [compound 477]
“+++” (≥50 = +++) | 300 (ALLGQTFSL; listed as Homo sapiens) [compound 300]
“+++” (≥50 = +++) | 317 (SLAALVVHV; listed as Homo sapiens) [compound 317]
“+++” (≥50 = +++) | 448 (NLLETKLQL; listed as Homo sapiens) [compound 448]
“+++” (≥50 = +++) | 463 (SLVESHLSDQLTL; listed as Homo sapiens) [compound 463]
“+++” (≥50 = +++) | 396 (ALLPDLPAL; listed as Homo sapiens) [compound 396]
“+++” (≥50 = +++) | 391 (YVYPQRLNFV; listed as Homo sapiens) [compound 391]
“++++” (≥75% = ++++) | 305 (SIANFSEFYV; listed as Homo sapiens) [compound 305]
